Experimental data published in PMC9938351, “Structural insights into ribonucleoprotein dissociation by nucleocapsid protein interacting with non-structural protein 3 in SARS-CoV-2” (Communications Biology, 2020).

B1: MERS-CoV Ubl1 of Nsp3 (domain or fragment)
chain: APVKKVAFGGDQVHEVAAVRSVTVEYNIHAVLDTLLASSSLRTFVVDKSLSIEEFADVVKEQVSDLLVKLLRGMPIPDFDLDDFIDAPCYCFNAEGDASWSSTMIFSLHPVEC
B2: SARS-CoV Ubl1 of Nsp3 (domain or fragment)
chain: APIKGVTFGEDTVWEVQGYKNVRITFELDERVDKVLNEKCSVYTVESGTEVTEFACVVAEAVVKTLQPVSDLLTNMGIDLDEWSVATFYLFDDAGEENFSSRMYCSFYPPD

Columns and labels:
MERS-CoV N protein = MERS-CoV N protein (MERS-CoV, UniProt K9N4V7 1-411); assay: ITC; conditions: both partners purified
SARS-CoV N protein = SARS-CoV N protein (SARS-CoV, UniProt P59595 1-422); assay: ITC; conditions: both partners purified
Chain of SARS-CoV N protein (P59595 whole entry): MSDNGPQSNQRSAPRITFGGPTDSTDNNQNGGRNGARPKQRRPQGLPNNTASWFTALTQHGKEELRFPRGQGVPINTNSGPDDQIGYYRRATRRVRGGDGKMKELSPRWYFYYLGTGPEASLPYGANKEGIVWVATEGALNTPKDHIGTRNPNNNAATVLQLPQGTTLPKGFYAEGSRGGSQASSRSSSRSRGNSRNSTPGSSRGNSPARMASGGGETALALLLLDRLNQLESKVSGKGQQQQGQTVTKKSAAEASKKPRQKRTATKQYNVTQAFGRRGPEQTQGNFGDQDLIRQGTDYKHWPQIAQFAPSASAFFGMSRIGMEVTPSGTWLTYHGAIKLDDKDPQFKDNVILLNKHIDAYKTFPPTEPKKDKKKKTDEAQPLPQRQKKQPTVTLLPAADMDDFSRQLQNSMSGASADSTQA

Row | Binder | Kd (MERS-CoV N protein) | dH (MERS-CoV N protein) | stoichiometry N (MERS-CoV N protein) | Kd (SARS-CoV N protein) | dH (SARS-CoV N protein) | stoichiometry N (SARS-CoV N protein)
1 | B1 | 2300 ± 600 nM | 25.5 ± 1.3 kJ/mol | 0.82 ± 0.02 | – | – | –
2 | B2 | – | – | – | 800 ± 200 nM | -55.9 ± 1.6 kJ/mol | 1 ± 0.02
